Laboratory results as given in patent US20210238276A1 (INTEGRAL MOLECULAR, published 2021).
Residue numbers refer to the chain shown, from its start.

Columns and labels:
Assay in all cases: flow cytometry, alanine-scan library in HEK-293T, with cytochalasin B
hsGLUT4 F314A = target: T1, hsGLUT4 F314A (human, UniProt P14672 1-509)
T1 sequence: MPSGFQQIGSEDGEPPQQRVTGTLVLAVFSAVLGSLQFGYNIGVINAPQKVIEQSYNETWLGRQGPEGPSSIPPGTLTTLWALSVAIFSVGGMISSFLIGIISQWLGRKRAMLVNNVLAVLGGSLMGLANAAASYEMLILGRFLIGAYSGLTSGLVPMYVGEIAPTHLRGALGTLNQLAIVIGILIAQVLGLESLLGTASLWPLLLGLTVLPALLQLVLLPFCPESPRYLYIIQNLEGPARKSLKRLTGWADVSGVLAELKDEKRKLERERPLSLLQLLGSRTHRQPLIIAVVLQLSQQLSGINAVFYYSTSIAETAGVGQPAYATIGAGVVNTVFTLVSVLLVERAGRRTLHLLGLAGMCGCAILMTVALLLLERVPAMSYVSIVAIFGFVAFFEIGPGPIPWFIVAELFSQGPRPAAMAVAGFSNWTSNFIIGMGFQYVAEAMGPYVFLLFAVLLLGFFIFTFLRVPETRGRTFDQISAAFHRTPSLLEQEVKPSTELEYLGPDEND
Method in brief: (§1)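 HEK-293T cells expressing individual GLUT4 alanine mutants were stained 48 h post-transfection with anti-GLUT4 scFv MAbs (2 μg/ml), then biotinylated secondary and streptavidin-PerCP, and read by high-throughput flow cytometry. Where used, cytochalasin B (10 uM final) was given for 30 min before and during primary antibody staining.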

hsGLUT4 V306A = target: T2, hsGLUT4 V306A (human, UniProt P14672 1-509)
T2 sequence: T1 sequence with V306A, A314F
Method in brief: as §1

hsGLUT4 L260A = target: T3, hsGLUT4 L260A (human, UniProt P14672 1-509)
T3 sequence: T1 sequence with L260A, A314F
Method in brief: as §1

hsGLUT4 L296A = target: T4, hsGLUT4 L296A (human, UniProt P14672 1-509)
T4 sequence: T1 sequence with L296A, A314F
Method in brief: as §1

% of binding to wild type GLUT4 (hsGLUT4 F314A): 23%
% of binding to wild type GLUT4 (hsGLUT4 V306A): 29%
% of binding to wild type GLUT4 (hsGLUT4 L260A): 42%
% of binding to wild type GLUT4 (hsGLUT4 L296A): 69%
B1: AB102 (Fc fusion)
scFv: ALTQPSSVSANLGGTVKITCSGGGSYGYGWYQQKSPGSAPVTVIYSNDQRPSDIPSRFSGSKSGSTATLTITGVRAEDEAIYYCGSTDSDYVGIFGAGTTLTVLGQSSRSSGGGGSSGGGGSAVTLDESGGGLQTPGGTLSLVCKASGFDFSSYATIWVRQAPGKGLEWVAGISGTGTGSSTGYAPAVKGRATISRDNGQSTVRLQLNNLRAEDTGSYFCAKSTGYGDSWIYPDSIDAWGHGTEVIVSS
notes: also called MAb AB102; not shown: Fc fragment of human IgG1, cloned in frame with the scFv
